Consider nine molecules from US20130315910A1 (Xencor, published 2013).

The term Kd denotes the constant that tells how readily two partners part at equilibrium. Read a high Kd as lower affinity.

Assay [1] has as its target T1, cynoFcγRIIIa (Macaca fascicularis, UniProt Q8SPW2).
T1 construct: extracellular region, C-terminal His- and GST-tag; also called cynomolgus monkey FcγRIIIa
The assay can be described thus: SPR, off-rate. (In SPR one partner is held on a chip, and binding of the other changes the refractive index at the surface.)

The target of assay [2] is T2, mFcγRIIb (Mus musculus, UniProt P08101).
T2 construct: extracellular region, C-terminal His- and GST-tag; also called mouse FcγRII
T2 sequence (receptor extracellular region, looked up): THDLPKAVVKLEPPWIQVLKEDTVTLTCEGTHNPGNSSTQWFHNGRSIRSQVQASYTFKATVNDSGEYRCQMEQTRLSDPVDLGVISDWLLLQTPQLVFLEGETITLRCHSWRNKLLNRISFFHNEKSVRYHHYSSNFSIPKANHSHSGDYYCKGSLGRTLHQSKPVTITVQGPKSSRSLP
The assay can be described thus: SPR, off-rate.

Assay [3] has as its target T3, mFcγRIV.
T3 construct: also called mouse FcγRIV; not shown: C-terminal His and GST tags (named only on our card)
T3 chain: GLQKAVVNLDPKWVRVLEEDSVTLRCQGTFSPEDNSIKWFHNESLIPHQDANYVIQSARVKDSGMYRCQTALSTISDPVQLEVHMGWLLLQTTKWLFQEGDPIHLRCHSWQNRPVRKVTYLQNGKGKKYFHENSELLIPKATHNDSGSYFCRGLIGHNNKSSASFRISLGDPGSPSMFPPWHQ
Nature of the assay: SPR, off-rate.

For assay [4], the target named is T4, cynoFcγRIIb (Macaca fascicularis, UniProt A0A140HDP4).
T4 construct: extracellular region, C-terminal His- and GST-tag; also called cynomolgus monkey FcγRIIb
T4 sequence (receptor extracellular region): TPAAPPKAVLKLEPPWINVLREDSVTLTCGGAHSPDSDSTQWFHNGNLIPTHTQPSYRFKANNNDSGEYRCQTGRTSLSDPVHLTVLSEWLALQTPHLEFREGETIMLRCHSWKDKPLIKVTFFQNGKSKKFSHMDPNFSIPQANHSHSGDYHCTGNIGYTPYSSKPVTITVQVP
The assay can be described thus: SPR.

The target of assay [5] is T5, human FcγRI receptor protein (R&D Systems) (human, UniProt P12314 16-288).
T5 construct: also called soluble FcγRI; solFcγRI
T5 sequence (P12314 16-288 limits assumed): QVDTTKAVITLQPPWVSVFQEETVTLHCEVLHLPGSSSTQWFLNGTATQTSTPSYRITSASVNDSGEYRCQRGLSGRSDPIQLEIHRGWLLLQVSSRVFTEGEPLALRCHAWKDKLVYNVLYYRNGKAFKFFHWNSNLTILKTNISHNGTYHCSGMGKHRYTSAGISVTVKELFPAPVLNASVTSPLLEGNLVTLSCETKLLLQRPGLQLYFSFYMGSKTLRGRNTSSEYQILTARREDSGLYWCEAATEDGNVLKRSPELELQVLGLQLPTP
The assay can be described thus: SPR.

The target in assay [6] is T6, human FcγRIIIa (158V), His- and GST-tagged (human, UniProt P08637 17-208).
T6 construct: also called V158 FcγRIIIa; VIIIa; not shown: 6xHis and GST tags of the pTT5 vector
T6 sequence (P08637 17-208 F176V): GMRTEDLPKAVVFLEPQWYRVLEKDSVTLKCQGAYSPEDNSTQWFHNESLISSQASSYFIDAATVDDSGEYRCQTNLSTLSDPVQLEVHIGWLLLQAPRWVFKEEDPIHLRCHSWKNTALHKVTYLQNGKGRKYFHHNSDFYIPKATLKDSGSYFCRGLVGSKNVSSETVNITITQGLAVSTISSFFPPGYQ
Nature of the assay: SPR.

In assay [7] the target is T7, human FcγRIIa (131H), His- and GST-tagged (human, UniProt P12318 34-217).
T7 construct: also called H131 FcγRIIa; HIIa; not shown: 6xHis and GST tags of the pTT5 vector
T7 sequence (looked up): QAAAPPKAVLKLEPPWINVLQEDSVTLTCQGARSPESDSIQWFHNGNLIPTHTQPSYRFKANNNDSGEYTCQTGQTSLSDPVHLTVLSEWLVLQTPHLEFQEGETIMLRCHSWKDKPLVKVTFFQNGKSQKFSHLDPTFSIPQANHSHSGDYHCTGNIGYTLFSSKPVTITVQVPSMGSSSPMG
Nature of the assay: SPR.

Assay [8] concerns the target T8, human FcγRIIa (131R), His- and GST-tagged (human, UniProt P12318 34-217).
T8 construct: Expressed in HEK293T cells, purified by nickel chromatography; also called R131 FcγRIIa; not shown: 6xHis and GST tags of the pTT5 vector
T8 sequence (looked up): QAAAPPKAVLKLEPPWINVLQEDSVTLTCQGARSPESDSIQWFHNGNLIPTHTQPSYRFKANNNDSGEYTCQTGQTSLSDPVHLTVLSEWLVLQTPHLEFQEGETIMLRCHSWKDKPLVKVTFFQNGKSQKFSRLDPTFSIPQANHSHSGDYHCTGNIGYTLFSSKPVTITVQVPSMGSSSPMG
The assay can be described thus: SPR.

Assay [9] concerns the target T9, human FcγRIIb receptor protein (R&D Systems) (human, UniProt P31994 46-217).
T9 construct: Bought protein injected over captured antibody in Biacore; also called CD32b
T9 sequence (looked up): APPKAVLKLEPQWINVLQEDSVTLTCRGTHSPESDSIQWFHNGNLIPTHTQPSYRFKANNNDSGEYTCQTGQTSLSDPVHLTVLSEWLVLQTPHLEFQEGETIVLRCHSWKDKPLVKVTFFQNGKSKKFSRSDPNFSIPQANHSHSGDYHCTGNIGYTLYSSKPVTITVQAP
The assay can be described thus: SPR.

Assay [10] has as its target T4, cynoFcγRIIb. The assay can be described thus: SPR, off-rate.
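For Fold vs WT IgG1 (off-rate) in this document: fold improvement over WT IgG1 so higher means slower dissociation than WT.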

T1 sequence (Q8SPW2 17-208): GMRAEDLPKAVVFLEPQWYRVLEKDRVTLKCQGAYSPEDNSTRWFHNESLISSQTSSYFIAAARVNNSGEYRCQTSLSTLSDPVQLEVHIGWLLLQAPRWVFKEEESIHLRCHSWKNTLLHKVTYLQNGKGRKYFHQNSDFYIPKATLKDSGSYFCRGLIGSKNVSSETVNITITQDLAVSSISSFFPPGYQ

B1: G236N/S267E (antibody, human IgG1, kappa)
heavy: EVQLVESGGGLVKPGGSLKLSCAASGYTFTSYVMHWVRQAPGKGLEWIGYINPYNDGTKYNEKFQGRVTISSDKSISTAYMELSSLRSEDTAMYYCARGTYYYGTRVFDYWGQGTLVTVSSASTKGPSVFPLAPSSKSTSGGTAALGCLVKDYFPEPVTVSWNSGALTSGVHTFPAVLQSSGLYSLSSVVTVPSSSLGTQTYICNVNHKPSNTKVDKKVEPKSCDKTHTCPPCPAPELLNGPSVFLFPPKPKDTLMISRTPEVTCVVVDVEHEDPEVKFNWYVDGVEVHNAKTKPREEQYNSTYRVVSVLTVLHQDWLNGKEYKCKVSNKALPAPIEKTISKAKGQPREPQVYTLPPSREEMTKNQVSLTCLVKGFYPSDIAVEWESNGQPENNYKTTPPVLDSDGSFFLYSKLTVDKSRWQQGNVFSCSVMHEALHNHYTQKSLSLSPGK
light: DIVMTQSPATLSLSPGERATLSCRSSKSLQNVNGNTYLYWFQQKPGQSPQLLIYRMSNLNSGVPDRFSGSGSGTEFTLTISSLEPEDFAVYYCMQHLEYPITFGAGTKLEIKRTVAAPSVFIFPPSDEQLKSGTASVVCLLNNFYPREAKVQWKVDNALQSGNSQESVTEQDSKDSTYSLSSTLTLSKADYEKHKVYACEVTHQGLSSPVTKSFNRGEC
notes: HuAM4G7 anti-CD19 IgG1 (m1) with these Fc substitutions, EU index; copies: 2 + 2
As to B1, the binding result in [1], in assay [2], in [3], in assay [6] and in assay [7] was “no binding” in each case. The “Fold vs WT IgG1 (off-rate)” value in [4] amounted to 0.587 fold. Moreover, the “Fold vs WT IgG1” value turned out to be 0.0355 fold in [5], 3.27 fold in assay [8] and 19.8 fold in assay [9]. Further, the Kd stood at 0.00927 µM in assay [5], 0.263 µM in assay [8] and 0.0742 µM in assay [9].

B2: G237E (antibody, human IgG1, kappa)
heavy: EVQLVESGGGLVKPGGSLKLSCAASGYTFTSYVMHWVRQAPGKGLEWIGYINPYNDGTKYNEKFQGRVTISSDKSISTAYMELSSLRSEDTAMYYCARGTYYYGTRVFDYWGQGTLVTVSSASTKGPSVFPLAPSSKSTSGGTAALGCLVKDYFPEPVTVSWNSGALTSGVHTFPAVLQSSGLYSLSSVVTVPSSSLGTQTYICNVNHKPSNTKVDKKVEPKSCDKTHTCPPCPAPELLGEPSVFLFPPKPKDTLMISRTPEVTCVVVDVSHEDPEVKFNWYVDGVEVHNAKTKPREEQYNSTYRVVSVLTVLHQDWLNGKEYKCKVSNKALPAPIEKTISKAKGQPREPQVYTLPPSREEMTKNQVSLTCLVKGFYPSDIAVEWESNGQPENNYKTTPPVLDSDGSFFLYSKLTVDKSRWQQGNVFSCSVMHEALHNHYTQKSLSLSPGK
light: DIVMTQSPATLSLSPGERATLSCRSSKSLQNVNGNTYLYWFQQKPGQSPQLLIYRMSNLNSGVPDRFSGSGSGTEFTLTISSLEPEDFAVYYCMQHLEYPITFGAGTKLEIKRTVAAPSVFIFPPSDEQLKSGTASVVCLLNNFYPREAKVQWKVDNALQSGNSQESVTEQDSKDSTYSLSSTLTLSKADYEKHKVYACEVTHQGLSSPVTKSFNRGEC
notes: HuAM4G7 anti-CD19 IgG1 (m1) with this Fc substitution, EU index; copies: 2 + 2
Take B2: the binding result in assay [10], in [1], in assay [2] and in assay [3] was “no binding” in each case. Further, the “Fold vs WT IgG1” value was found to be 0.00859 fold in assay [8] and 0.0147 fold in [9]. Further, the Kd in assay [8] and in [9] was 100 µM each time.

B3: G237S (antibody, human IgG1, kappa)
heavy: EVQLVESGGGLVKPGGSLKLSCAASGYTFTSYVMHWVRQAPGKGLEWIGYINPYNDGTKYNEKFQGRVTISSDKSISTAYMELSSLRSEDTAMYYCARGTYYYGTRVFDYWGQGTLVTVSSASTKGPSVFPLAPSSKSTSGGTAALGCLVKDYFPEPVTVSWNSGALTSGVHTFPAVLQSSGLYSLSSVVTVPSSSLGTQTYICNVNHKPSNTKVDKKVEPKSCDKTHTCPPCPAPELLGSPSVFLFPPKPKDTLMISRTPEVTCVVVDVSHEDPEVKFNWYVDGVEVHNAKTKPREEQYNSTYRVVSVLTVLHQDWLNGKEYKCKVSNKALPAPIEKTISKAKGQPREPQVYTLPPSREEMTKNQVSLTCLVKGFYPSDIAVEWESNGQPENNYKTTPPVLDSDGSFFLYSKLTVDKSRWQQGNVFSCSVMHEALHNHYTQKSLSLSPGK
light: DIVMTQSPATLSLSPGERATLSCRSSKSLQNVNGNTYLYWFQQKPGQSPQLLIYRMSNLNSGVPDRFSGSGSGTEFTLTISSLEPEDFAVYYCMQHLEYPITFGAGTKLEIKRTVAAPSVFIFPPSDEQLKSGTASVVCLLNNFYPREAKVQWKVDNALQSGNSQESVTEQDSKDSTYSLSSTLTLSKADYEKHKVYACEVTHQGLSSPVTKSFNRGEC
notes: as for B2
Consider B3, for which the binding result in assay [10], in assay [1], in assay [2] and in [3] was “no binding” throughout. Moreover, the “Fold vs WT IgG1” value in assay [8] was 0.081 fold; in [9], 0.147 fold. In addition, the values for the Kd in assay [8] and in [9] were 10.6 µM and 10 µM, respectively.

B4: P329E (antibody, human IgG1, kappa)
heavy: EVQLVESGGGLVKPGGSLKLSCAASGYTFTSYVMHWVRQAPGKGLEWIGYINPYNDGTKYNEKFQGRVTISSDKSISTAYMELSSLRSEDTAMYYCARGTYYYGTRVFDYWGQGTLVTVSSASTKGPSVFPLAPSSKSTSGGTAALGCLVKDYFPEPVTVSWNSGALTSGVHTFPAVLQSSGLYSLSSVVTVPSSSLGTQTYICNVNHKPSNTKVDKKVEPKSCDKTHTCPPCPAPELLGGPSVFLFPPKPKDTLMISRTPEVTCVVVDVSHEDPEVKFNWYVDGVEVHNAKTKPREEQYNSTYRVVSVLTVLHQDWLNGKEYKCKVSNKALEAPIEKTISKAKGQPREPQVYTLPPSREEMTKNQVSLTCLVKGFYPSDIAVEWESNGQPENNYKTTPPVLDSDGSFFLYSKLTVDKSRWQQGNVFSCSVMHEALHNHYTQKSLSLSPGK
light: DIVMTQSPATLSLSPGERATLSCRSSKSLQNVNGNTYLYWFQQKPGQSPQLLIYRMSNLNSGVPDRFSGSGSGTEFTLTISSLEPEDFAVYYCMQHLEYPITFGAGTKLEIKRTVAAPSVFIFPPSDEQLKSGTASVVCLLNNFYPREAKVQWKVDNALQSGNSQESVTEQDSKDSTYSLSSTLTLSKADYEKHKVYACEVTHQGLSSPVTKSFNRGEC
notes: as for B2
As for B4, the binding result in assay [10], in [1], in assay [2] and in assay [3] was “no binding” throughout. The “Fold vs WT IgG1” value in [8] worked out at 0.0859 fold; in assay [9] it was 0.147 fold. Moreover, the equilibrium dissociation constant (Kd) in [8] and in assay [9] was 10 µM in each case.

B5: G237H (antibody, human IgG1, kappa)
heavy: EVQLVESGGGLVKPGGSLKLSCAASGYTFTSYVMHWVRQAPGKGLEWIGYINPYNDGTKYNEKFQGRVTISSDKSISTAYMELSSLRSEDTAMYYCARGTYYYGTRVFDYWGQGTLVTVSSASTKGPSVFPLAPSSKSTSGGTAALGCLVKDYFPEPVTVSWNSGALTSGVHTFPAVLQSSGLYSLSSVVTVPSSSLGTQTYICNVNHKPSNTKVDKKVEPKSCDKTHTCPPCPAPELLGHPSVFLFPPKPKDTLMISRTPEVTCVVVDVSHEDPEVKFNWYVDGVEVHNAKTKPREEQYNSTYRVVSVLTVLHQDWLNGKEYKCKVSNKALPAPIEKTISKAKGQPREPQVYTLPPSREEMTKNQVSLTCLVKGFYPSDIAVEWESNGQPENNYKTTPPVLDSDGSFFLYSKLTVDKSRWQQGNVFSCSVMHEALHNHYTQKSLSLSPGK
light: DIVMTQSPATLSLSPGERATLSCRSSKSLQNVNGNTYLYWFQQKPGQSPQLLIYRMSNLNSGVPDRFSGSGSGTEFTLTISSLEPEDFAVYYCMQHLEYPITFGAGTKLEIKRTVAAPSVFIFPPSDEQLKSGTASVVCLLNNFYPREAKVQWKVDNALQSGNSQESVTEQDSKDSTYSLSSTLTLSKADYEKHKVYACEVTHQGLSSPVTKSFNRGEC
notes: as for B2
Consider B5, for which the binding result in assay [10], in assay [1], in assay [2], in [3], in assay [8] and in [9] was “no binding” throughout.

B6: G237K (antibody, human IgG1, kappa)
heavy: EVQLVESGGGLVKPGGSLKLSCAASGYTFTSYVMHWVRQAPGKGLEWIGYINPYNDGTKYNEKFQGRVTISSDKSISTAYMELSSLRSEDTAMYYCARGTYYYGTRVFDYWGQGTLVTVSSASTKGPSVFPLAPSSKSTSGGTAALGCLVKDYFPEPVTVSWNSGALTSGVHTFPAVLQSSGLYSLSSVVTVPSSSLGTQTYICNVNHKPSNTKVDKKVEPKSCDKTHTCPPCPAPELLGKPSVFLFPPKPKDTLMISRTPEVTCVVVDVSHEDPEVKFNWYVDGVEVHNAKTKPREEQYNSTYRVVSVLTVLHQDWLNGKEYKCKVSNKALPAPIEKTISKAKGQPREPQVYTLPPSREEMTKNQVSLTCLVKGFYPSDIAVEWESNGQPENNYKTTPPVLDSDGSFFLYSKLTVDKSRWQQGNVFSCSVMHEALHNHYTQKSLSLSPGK
light: DIVMTQSPATLSLSPGERATLSCRSSKSLQNVNGNTYLYWFQQKPGQSPQLLIYRMSNLNSGVPDRFSGSGSGTEFTLTISSLEPEDFAVYYCMQHLEYPITFGAGTKLEIKRTVAAPSVFIFPPSDEQLKSGTASVVCLLNNFYPREAKVQWKVDNALQSGNSQESVTEQDSKDSTYSLSSTLTLSKADYEKHKVYACEVTHQGLSSPVTKSFNRGEC
notes: as for B2
With B6, the binding result in assay [10], in assay [1], in assay [2] and in [3] was “no binding” each time. For the same molecule, the results for the “Fold vs WT IgG1” value in assay [8] and in [9] were 0.00859 fold and 0.0147 fold, respectively. The dissociation constant Kd in assay [8] and in assay [9] was 100 µM in each case.

B7: L234K (antibody, human IgG1, kappa)
heavy: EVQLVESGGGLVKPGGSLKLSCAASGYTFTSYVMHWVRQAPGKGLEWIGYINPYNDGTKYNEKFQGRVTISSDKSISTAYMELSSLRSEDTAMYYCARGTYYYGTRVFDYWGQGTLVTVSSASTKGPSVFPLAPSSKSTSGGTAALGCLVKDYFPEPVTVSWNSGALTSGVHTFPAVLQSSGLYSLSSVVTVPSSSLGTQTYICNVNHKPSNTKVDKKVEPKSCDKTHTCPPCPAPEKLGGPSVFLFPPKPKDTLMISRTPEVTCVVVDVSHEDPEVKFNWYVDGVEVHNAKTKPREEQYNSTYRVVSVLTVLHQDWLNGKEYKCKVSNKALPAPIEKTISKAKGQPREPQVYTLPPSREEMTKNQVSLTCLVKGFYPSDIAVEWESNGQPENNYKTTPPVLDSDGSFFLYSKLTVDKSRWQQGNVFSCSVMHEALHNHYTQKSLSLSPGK
light: DIVMTQSPATLSLSPGERATLSCRSSKSLQNVNGNTYLYWFQQKPGQSPQLLIYRMSNLNSGVPDRFSGSGSGTEFTLTISSLEPEDFAVYYCMQHLEYPITFGAGTKLEIKRTVAAPSVFIFPPSDEQLKSGTASVVCLLNNFYPREAKVQWKVDNALQSGNSQESVTEQDSKDSTYSLSSTLTLSKADYEKHKVYACEVTHQGLSSPVTKSFNRGEC
notes: as for B2
Consider B7, for which the binding result in assay [10], in assay [1], in assay [2] and in assay [3] was “no binding” in each case. The “Fold vs WT IgG1” value in [8] turned out to be 0.00859 fold; in assay [9], 0.0147 fold. Also, the Kd in [8] and in assay [9] was 100 µM each time.

B8: G236P (antibody, human IgG1, kappa)
heavy: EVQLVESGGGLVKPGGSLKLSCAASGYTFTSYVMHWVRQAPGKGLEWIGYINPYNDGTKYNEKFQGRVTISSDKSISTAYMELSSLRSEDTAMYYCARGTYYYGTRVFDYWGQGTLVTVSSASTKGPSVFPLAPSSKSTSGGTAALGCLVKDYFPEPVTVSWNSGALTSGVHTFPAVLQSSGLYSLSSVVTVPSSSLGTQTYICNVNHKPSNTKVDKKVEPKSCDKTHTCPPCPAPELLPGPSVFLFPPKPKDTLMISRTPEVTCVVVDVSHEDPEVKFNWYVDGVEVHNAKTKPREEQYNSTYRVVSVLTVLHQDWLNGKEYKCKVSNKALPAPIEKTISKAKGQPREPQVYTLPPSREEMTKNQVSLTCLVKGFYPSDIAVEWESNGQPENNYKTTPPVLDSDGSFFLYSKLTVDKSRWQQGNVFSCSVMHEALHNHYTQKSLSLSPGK
light: DIVMTQSPATLSLSPGERATLSCRSSKSLQNVNGNTYLYWFQQKPGQSPQLLIYRMSNLNSGVPDRFSGSGSGTEFTLTISSLEPEDFAVYYCMQHLEYPITFGAGTKLEIKRTVAAPSVFIFPPSDEQLKSGTASVVCLLNNFYPREAKVQWKVDNALQSGNSQESVTEQDSKDSTYSLSSTLTLSKADYEKHKVYACEVTHQGLSSPVTKSFNRGEC
notes: as for B2
B8: the binding result in assay [10], in [1], in [2] and in assay [3] was “no binding” each time. For the same molecule, the “Fold vs WT IgG1” value is 0.0859 fold in [8] and 0.147 fold in assay [9]. The Kd in assay [8] and in [9] was 10 µM throughout.

B9: G236R (antibody, human IgG1, kappa)
heavy: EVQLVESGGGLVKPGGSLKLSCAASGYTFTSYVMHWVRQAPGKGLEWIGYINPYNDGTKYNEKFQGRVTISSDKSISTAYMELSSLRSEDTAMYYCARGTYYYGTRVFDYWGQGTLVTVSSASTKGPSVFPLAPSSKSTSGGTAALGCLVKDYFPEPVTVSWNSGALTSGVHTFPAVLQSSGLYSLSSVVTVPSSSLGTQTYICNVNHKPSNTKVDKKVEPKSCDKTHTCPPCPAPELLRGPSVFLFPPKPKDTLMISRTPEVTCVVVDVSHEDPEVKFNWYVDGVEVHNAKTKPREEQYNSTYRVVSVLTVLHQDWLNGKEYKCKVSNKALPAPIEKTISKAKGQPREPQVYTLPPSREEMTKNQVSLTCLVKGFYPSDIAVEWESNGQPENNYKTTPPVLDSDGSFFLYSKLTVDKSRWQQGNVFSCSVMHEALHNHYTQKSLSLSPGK
light: DIVMTQSPATLSLSPGERATLSCRSSKSLQNVNGNTYLYWFQQKPGQSPQLLIYRMSNLNSGVPDRFSGSGSGTEFTLTISSLEPEDFAVYYCMQHLEYPITFGAGTKLEIKRTVAAPSVFIFPPSDEQLKSGTASVVCLLNNFYPREAKVQWKVDNALQSGNSQESVTEQDSKDSTYSLSSTLTLSKADYEKHKVYACEVTHQGLSSPVTKSFNRGEC
notes: as for B2
Take B9: the binding result in assay [10], in [1], in assay [2] and in [3] was “no binding” throughout. The “Fold vs WT IgG1” value in assay [8] is 0.00859 fold; in assay [9], 0.0147 fold. In addition, the Kd in assay [8] and in assay [9] was 100 µM each time.
